B4: Rpt3 (natural protein)
chain: MEELGIVTPVEKAVEEKPAVKSYASLLAQLNGTVNNNSALSNVNSDIYFKLKKLEKEYELLTLQEDYIKDEQRHLKRELKRAQEEVKRIQSVPLVIGQFLEPIDQNTGIVSSTTGMSYVVRILSTLDRELLKPSMSVALHRHSNALVDILPPDSDSSISVMGENEKPDVTYADVGGLDMQKQEIREAVELPLVQADLYEQIGIDPPRGVLLYGPPGTGKTMLVKAVANSTKAAFIRVNGSEFVHKYLGEGPRMVRDVFRLARENAPSIIFIDEVDSIATKRFDAQTGSDREVQRILIELLTQMDGFDQSTNVKVIMATNRADTLDPALLRPGRLDRKIEFPSLRDRRERRLIFGTIASKMSLAPEADLDSLIIRNDSLSGAVIAAIMQEAGLRAVRKNRYVILQSDLEEAYATQVKTDNTVDKFDFYK

Common to all, as to assay: cryo-EM structure
The target in one assay is T1, Rpn5 (S. cerevisiae, UniProt Q12250 1-445).
T1 sequence: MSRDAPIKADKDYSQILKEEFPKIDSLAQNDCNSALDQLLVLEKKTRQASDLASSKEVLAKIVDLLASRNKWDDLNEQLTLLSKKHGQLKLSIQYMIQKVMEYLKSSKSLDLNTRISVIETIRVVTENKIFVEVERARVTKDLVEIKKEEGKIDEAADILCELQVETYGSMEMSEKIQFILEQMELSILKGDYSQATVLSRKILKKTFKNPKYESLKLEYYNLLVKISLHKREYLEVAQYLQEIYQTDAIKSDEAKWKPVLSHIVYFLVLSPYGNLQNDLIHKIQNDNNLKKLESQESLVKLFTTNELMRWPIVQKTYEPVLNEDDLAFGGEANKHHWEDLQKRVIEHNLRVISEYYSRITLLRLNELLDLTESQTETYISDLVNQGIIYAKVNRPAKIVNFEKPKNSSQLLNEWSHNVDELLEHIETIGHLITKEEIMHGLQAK

In the assay “Rpt3” the target is B4.
The next assay addresses Rpt2 (S. cerevisiae, UniProt P40327 1-437).
In a further assay the target is T2, Rpn6 (S. cerevisiae, UniProt Q12377 1-434).
T2 sequence: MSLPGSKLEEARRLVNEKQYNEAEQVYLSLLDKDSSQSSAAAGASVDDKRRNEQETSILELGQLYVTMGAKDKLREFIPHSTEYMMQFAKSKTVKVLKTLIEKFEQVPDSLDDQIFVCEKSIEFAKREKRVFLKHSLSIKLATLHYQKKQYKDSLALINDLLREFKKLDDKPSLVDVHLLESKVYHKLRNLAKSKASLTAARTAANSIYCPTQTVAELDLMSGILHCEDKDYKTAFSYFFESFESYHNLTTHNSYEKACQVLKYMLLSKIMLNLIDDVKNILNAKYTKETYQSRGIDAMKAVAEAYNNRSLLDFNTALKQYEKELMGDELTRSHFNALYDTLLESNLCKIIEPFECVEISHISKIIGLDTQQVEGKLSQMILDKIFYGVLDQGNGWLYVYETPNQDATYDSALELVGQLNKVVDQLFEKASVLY

The next assay concerns the target T3, Rpn2 (S. cerevisiae, UniProt P32565 1-945).
T3 sequence: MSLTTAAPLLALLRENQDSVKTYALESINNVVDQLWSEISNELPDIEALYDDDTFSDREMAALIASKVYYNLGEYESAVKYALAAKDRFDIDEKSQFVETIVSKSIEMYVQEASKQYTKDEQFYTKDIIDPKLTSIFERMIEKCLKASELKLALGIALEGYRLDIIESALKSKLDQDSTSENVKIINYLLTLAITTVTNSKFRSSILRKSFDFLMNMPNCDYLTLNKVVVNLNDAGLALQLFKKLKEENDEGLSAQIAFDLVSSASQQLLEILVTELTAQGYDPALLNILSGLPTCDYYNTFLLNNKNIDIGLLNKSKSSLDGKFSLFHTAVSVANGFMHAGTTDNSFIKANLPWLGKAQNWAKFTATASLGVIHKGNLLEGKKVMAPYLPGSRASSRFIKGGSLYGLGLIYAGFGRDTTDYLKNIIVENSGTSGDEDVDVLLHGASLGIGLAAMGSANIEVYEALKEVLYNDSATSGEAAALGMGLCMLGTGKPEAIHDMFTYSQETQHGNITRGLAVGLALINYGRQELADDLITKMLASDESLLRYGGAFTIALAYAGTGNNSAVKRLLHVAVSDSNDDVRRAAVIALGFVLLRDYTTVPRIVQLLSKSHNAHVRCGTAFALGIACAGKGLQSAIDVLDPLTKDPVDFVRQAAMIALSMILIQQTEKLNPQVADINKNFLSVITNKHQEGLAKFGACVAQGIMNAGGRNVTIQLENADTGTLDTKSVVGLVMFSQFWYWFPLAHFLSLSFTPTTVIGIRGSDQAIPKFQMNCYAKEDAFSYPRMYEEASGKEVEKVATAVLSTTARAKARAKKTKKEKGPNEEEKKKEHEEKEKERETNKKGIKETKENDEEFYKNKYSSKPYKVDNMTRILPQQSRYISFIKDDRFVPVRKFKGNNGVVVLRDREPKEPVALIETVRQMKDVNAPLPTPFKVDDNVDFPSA

Rpt2, sequence (P40327 whole entry): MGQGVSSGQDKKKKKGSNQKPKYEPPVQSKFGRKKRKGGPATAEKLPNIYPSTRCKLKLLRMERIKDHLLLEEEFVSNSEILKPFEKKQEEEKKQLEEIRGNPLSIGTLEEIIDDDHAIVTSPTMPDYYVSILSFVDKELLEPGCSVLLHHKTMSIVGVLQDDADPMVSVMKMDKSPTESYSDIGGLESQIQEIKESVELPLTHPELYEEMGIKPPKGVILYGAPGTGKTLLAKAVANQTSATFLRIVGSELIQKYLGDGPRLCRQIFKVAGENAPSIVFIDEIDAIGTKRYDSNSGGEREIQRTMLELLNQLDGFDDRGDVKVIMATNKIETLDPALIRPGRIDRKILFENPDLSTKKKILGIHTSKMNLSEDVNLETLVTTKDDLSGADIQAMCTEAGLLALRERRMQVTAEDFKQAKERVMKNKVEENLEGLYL

B1: 20S core subunit α1 (natural protein)
chain: MSGAAAASAAGYDRHITIFSPEGRLYQVEYAFKATNQTNINSLAVRGKDCTVVISQKKVPDKLLDPTTVSYIFCISRTIGMVVNGPIPDARNAALRAKAEAAEFRYKYGYDMPCDVLAKRMANLSQIYTQRAYMRPLGVILTFVSVDEELGPSIYKTDPAGYYVGYKATATGPKQQEITTNLENHFKKSKIDHINEESWEKVVEFAITHMIDALGTEFSKNDLEVGVATKDKFFTLSAENIEERLVAIAEQD
For the molecule B1, the binding result with Rpn5 and with Rpt3 was “binds” each time.

B2: Rpn7 (natural protein)
chain: MVDVEEKSQEVEYVDPTVNRVPNYEVSEKAFLLTQSKVSIEQRKEAAEFVLAKIKEEEMAPYYKYLCEEYLVNNGQSDLEHDEKSDSLNEWIKFDQELYNELCKKNESKIKELNEKIQKLEEDDEGELEQAQAWINLGEYYAQIGDKDNAEKTLGKSLSKAISTGAKIDVMLTIARLGFFYNDQLYVKEKLEAVNSMIEKGGDWERRNRYKTYYGIHCLAVRNFKEAAKLLVDSLATFTSIELTSYESIATYASVTGLFTLERTDLKSKVIDSPELLSLISTTAALQSISSLTISLYASDYASYFPYLLETYANVLIPCKYLNRHADFFVREMRRKVYAQLLESYKTLSLKSMASAFGVSVAFLDNDLGKFIPNKQLNCVIDRVNGIVETNRPDNKNAQYHLLVKQGDGLLTKLQKYGAAVRLTGSDRV
Take B2: the binding result with Rpt2 was “binds”.

B3: 20S core subunit α3 (natural protein)
chain: MGSRRYDSRTTIFSPEGRLYQVEYALESISHAGTAIGIMASDGIVLAAERKVTSTLLEQDTSTEKLYKLNDKIAVAVAGLTADAEILINTARIHAQNYLKTYNEDIPVEILVRRLSDIKQGYTQHGGLRPFGVSFIYAGYDDRYGYQLYTSNPSGNYTGWKAISVGANTSAAQTLLQMDYKDDMKVDDAIELALKTLSKTTDSSALTYDRLEFATIRKGANDGEVYQKIFKPQEIKDILVKTGITKKDEDEEADEDMK
Consider B3, for which the binding result in the assay with Rpt2 is “binds”. Regarding B4, the binding result with Rpn5, with Rpn6 and with Rpn2 was “binds” throughout.

B5: Rpn13 (natural protein)
chain: MSMSSTVIKFRAGVCEYNEDSRLCTPIPVQGEIEIKPNEEEELGFWDFEWRPTEKPVGRELDPISLILIPGETMWVPIKSSKSGRIFALVFSSNERYFFWLQEKNSGNLPLNELSAKDKEIYNKMIGVLNNSSESDEEESNDEKQKAQDVDVSMQD
As to B5, the binding result with Rpn2 is reported as “binds”.

B6: Rpn12 (natural protein)
chain: MPSLAELTKSLSIAFENGDYAACEKLLPPIKIELIKNNLLIPDLSIQNDIYLNDLMITKRILEVGALASIQTFNFDSFENYFNQLKPYYFSNNHKLSESDKKSKLISLYLLNLLSQNNTTKFHSELQYLDKHIKNLEDDSLLSYPIKLDRWLMEGSYQKAWDLLQSGSQNISEFDSFTDILKSAIRDEIAKNTELSYDFLPLSNIKALLFFNNEKETEKFALERNWPIVNSKVYFNNQSKEKADYEDEMMHEEDQKTNIIEKAMDYAISIENIV
In the case of B6, the binding result with Rpn2 was “binds”.

B7: 20S core subunit α2 (natural protein)
chain: MTDRYSFSLTTFSPSGKLGQIDYALTAVKQGVTSLGIKATNGVVIATEKKSSSPLAMSETLSKVSLLTPDIGAVYSGMGPDYRVLVDKSRKVAHTSYKRIYGEYPPTKLLVSEVAKIMQEATQSGGVRPFGVSLLIAGHDEFNGFSLYQVDPSGSYFPWKATAIGKGSVAAKTFLEKRWNDELELEDAIHIALLTLKESVEGEFNGDTIELAIIGDENPDLLGYTGIPTDKGPRFRKLTSQEINDRLEAL
For the molecule B7, the binding result with Rpt3 and with Rpn6 was “binds” throughout.

The record behind these values is article PMC3285539 (Nature, 2012).
